Data set [1] concerns H1975 lung adenocarcinoma cells. Put plainly: MTT viability of H1975 cells co-cultured with CER T cells and Osimeritinib. In kind it is cell-based. The conditions noted are these: for growth/viability of H1975 cells (MTT): Osimeritinib 250, 500, 1000 nM, CD4+ T cells, E:T 1:1, 2:1, 5:1, 48 hours. The source says: H1975 lung adenocarcinoma cells harboring an EGFR mutation were co-cultured with CER123- or CER126-modified or Mock-transduced (vector only) CD4+ T cells with increasing concentrations of Osimeritinib. CER123 has a polypeptide sequence as set forth in SEQ ID NO:150 and comprises a Tim4 binding domain, Tim4 transmembrane domain, and an engulfment signaling domain comprising a primary engulfment signaling domain comprising a TLR2 signaling domain and a secondary engulfment signaling domain comprising a TRAF6 signaling domain. CER126 has a polypeptide sequence as set forth in SEQ ID NO:174 and comprises a Tim4 binding domain, Tim4 transmembrane domain, and an engulfment signaling domain comprising a primary engulfment signaling domain comprising a TLR2 signaling domain and a secondary engulfment signaling domain comprising a TRAF2 signaling domain. CD4 T cells were transduced with a lentiviral vector comprising CER123 or CER126 nucleic acid and truncated EGFR (transduction marker) nucleic acid. Assays were performed using CER modified T cells purified by FACS using an EGFR specific antibody 7 days after activation using CD3 & CD28 microbeads. CER modified T cells and H1975 cells were co-cultured at effector:target cell ratio (E:T) of 1:1, 2:1, or 5:1. After 48 hours of co-culture in the presence of Osimeritinib (0, 250 nM, 500 nM, or 1000 nM), T cells were washed away, and the number of viable H1975 cells were quantified using a calorimetric MTT assay. Cell viability experiments were performed in triplicate and presented as % of control (FIG. 45A).

In another data set the test system is H1975 NSCLC cells. The experiment in a line: LDH-based cytotoxicity, H1975 cells, 18 hours co-culture. The class given is cell-based. To be noted: Osimeritinib 0, 500, 1000 nM, E:T 2:1 or 5:1. The method, then: H1975 NSCLC cells were co-cultured with CER123- or CER126-expressing CD4+ T cells with increasing concentrations of Osimeritnib (0, 500 nM, or 1000 nM). Mock-transduced (vector only) T cells were used as control. Assays were performed using CER modified T cells purified by FACS using an EGFR specific antibody 7 days after activation using CD3 & CD28 microbeads. CER modified T cells and H1975 cells were co-cultured at effector:target cell ratios of 2:1 or 5:1. After 18 hours of co-culture, bulk supernatants were evaluated using LDH-based cytotoxicity assay.

The test system of data set [2] is HCC159 lung adenocarcinoma cells. The experiment in a line: MTT viability of HCC159 cells co-cultured with CER T cells and Osimeritinib. In kind it is cell-based. The conditions noted are these: for growth/viability of HCC159 cells (MTT): Osimeritinib 0.1, 1, 5 nM, E:T 1:1, 2:1, 5:1, 48 hours. As to the method:
HCC159 lung adenocarcinoma cells harboring an EGFR mutation were co-cultured with CER123- or CER126-expressing CD4+ T cells with increasing concentrations of Osimeritinib (0.1 nM, 1 nM, or 5 nM). Mock transduced (vector only) T cells were used as control. After 48 hours of co-culture at effector: target cell ratios at 1:1, 2:1 or 5:1 in the presence of drug, T cells were washed away, and the number of viable HCC159 cells was quantified using a calorimetric MTT assay. Cell viability experiments were performed in triplicates and presented as % of control with (FIG. 48A).

Data set [3] has as its system SCC152 cells. Put plainly: Magnitude breadth of phagocytosis by CER-transduced CD4+ T cells. The class given is cell-based, human. The method, then: Various CER-modified CD4+ T cells were also evaluated for breadth of response to determine whether a particular CER confers a broad phagocytic response of low magnitude (e.g., 10% engulfment in 90% of cells) or a less frequent but strong phagocytic response (e.g., 90% engulfment in 10% of cells) in the host cells. CD8+ T cells were transduced with HPV16 E7 specific TCR as described in Example 5. CD4+ T cells were transduced with lentiviral vectors comprising a CER21, CER27, CER104, CER116, or CER117 nucleic acid. Mock-transduced (vector alone) CD4+ T cell were used as control. CD4+/CER+ and CD8+/E7 TCR+ T cells were stained with CELLTRACE violet. […] HPV16 E7 TCR transduced CD8+ T cells and selected CER transduced CD4+ T cells were mixed at a 1:1 ratio and co-cultured with SCC152 cells at a 1:1 ratio for 8 hours. Phagocytosis of target SCC152 cells by CER-transduced CD4+ T cells was analyzed by fluorescence microscopy. […] The horizontal axis represents the % area of CER-transduced CD4+ T cells having engulfment or % area of […]. This measure was rarely above 40% across CER types tested. The vertical axis represents the proportion of CER-transduced CD4+ T cells that were phagocytic. For CER104, about 20% of CER104-transduced CD4+ T cells have more than 10% engulfment. For CER117-transduced CD4+ T cells, less than 10% have more than 10% engulfment.

Data set [4] relates to SCC152 cells. Put plainly: LDH cytotoxicity assay, CD4 T cell/CER104 + CD8 T cell/HPV16 E7 TCR co-culture. The class given is cell-based, human. To be noted: CD4/CER + CD8/HPV16 E7 TCR 1:1, 4 hours. From the text: LDH is a cytosolic enzyme that is released by a cell into cell culture media when the plasma membrane is damaged. Thus, LDH's presence in culture medium is a marker for cell death. LDH assays are capable of detecting low level damage to cell membrane which cannot be detected using other methods. LDH may be detected using colorimetric or fluorometric methods.

Entries after “also recorded” stand apart in the source; their conditions may differ.

B1: CER126: Tim4 binding and transmembrane domains, TLR2 primary and TRAF2 secondary signaling domains; SEQ ID NO:174 (protein)
chain: MSKGLLLLWLVTELWWLYLTPAASEDTIIGFLGQPVTLPCHYLSWSQSRNSMCWGKGSCPNSKCNAELLRTDGTRIISRKSTKYTLLGKVQFGEVSLTISNTNRGDSGVYCCRIEVPGWFNDVKKNVRLELRRATTTKKPTTTTRPTTTPYVTTTTPELLPTTVMTTSVLPTTTPPQTLATTAFSTAVTTCPSTTPGSFSQETTKGSAFTTESETLPASNHSQRSMMTISTDIAVLRPTGSNPGILPSTSQLTTQKTTLTTSESLQKTTKSHQINSRQTILIIACCVGFVLMVLLFLAFLHRFHGLWYMKMMWAWLQAKRKPRKAPSRNICYDAFVSYSERDAYWVENLMVQELENFNPPFKLCLHKRDFIPGKWIIDNIIDSIEKSHKTVFVLSENFVKSEWCKYELDFSHFRLFDENNDAAILILLEPIEKKAIPQRFCKLRKIMNTKTYLEWPMDEAQREGFWVNLRAAIKSMAAASVTPPGSLELLQPGFSKTLLGTKLEAKYLCSACRNVLRRPFQAQCGHRYCSFCLASILSSGPQNCAACVHEGIYEEGISILESSSAFPDNAARREVESLPAVCPSDGCTWKGTLKEYESCHEGRCPLMLTECPACKGLVRLGEKERHLEHECPERSLSCRHCRAPCCGADVKAHHEVCPKFPLTCDGCGKKKIPREKFQDHVKTCGKCRVPCRFHAIGCLETVEGEKQQEHEVQWLREHLAMLLSSVLEAKPLLGDQSHAGSELLQRCESLEKKTATFENIVCVLNREVERVAMTAEAC
modifications: CER126 protein
Regarding B1, the “bright field images of H1975 co-culture” value in data set [1] (Osimeritinib 500 nM, vs control T cells (vector alone)) is “loss of H1975 cells”. The “growth/viability of H1975 cells (MTT)” value in data set [1] is reported as “synergistically suppressed”. Further, in the data set on H1975 NSCLC cells, the “cell killing of H1975 cells (LDH)” value was “inducible cell killing responses”. In addition, the “growth/viability of HCC159 cells (MTT)” value in data set [2] is “dose-dependent target cell killing responses; also recorded: synergistically suppressed”. Further, the “engulfment of SCC152 target cells (fluorescent micrograph)” value in the data set on SCC152 cells [3] (CD4+ T cells) is “SCC152 target cells engulfed”.

B2: CER123: Tim4 binding and transmembrane domains, TLR2 primary and TRAF6 secondary signaling domains; SEQ ID NO:150 (protein)
chain: MSKGLLLLWLVTELWWLYLTPAASEDTIIGFLGQPVTLPCHYLSWSQSRNSMCWGKGSCPNSKCNAELLRTDGTRIISRKSTKYTLLGKVQFGEVSLTISNTNRGDSGVYCCRIEVPGWFNDVKKNVRLELRRATTTKKPTTTTRPTTTPYVTTTTPELLPTTVMTTSVLPTTTPPQTLATTAFSTAVTTCPSTTPGSFSQETTKGSAFTTESETLPASNHSQRSMMTISTDIAVLRPTGSNPGILPSTSQLTTQKTTLTTSESLQKTTKSHQINSRQTILIIACCVGFVLMVLLFLAFLHRFHGLWYMKMMWAWLQAKRKPRKAPSRNICYDAFVSYSERDAYWVENLMVQELENFNPPFKLCLHKRDFIPGKWIIDNIIDSIEKSHKTVFVLSENFVKSEWCKYELDFSHFRLFDENNDAAILILLEPIEKKAIPQRFCKLRKIMNTKTYLEWPMDEAQREGFWVNLRAAIKSMSLLNCENSCGSSQSESDCCVAMASSCSAVTKDDSVGGTASTGNLSSSFMEEIQGYDVEFDPPLESKYECPICLMALREAVQTPCGHRFCKACIIKSIRDAGHKCPVDNEILLENQLFPDNFAKREILSLMVKCPNEGCLHKMELRHLEDHQAHCEFALMDCPQCQRPFQKFHINIHILKDCPRRQVSCDNCAASMAFEDKEIHDQNCPLANVICEYCNTILIREQMPNHYDLDCPTAPIPCTFSTFGCHEKMQRNHLARHLQENTQSHMRMLA
modifications: CER123 protein
As for B2, in data set [1], the “growth/viability of H1975 cells (MTT)” value is on record as “synergistically suppressed”. Further, the “cell killing of H1975 cells (LDH)” value in the data set with H1975 NSCLC cells is given as “inducible cell killing responses”. In addition, the “bright field images of HCC159 co-culture” value in data set [2] (1 nM Osimeritinib, vs control T cells) is recorded as “loss of HCC159 cells”. Also, the “growth/viability of HCC159 cells (MTT)” value in data set [2] was “dose-dependent target cell killing responses; also recorded: synergistically suppressed”.

B3: CER104: Tim4 binding and transmembrane domains, TLR8 primary and DAP12 secondary signaling domains; SEQ ID NO:133 (protein)
chain: MSKGLLLLWLVTELWWLYLTPAASEDTIIGFLGQPVTLPCHYLSWSQSRNSMCWGKGSCPNSKCNAELLRTDGTRIISRKSTKYTLLGKVQFGEVSLTISNTNRGDSGVYCCRIEVPGWFNDVKKNVRLELRRATTTKKPTTTTRPTTTPYVTTTTPELLPTTVMTTSVLPTTTPPQTLATTAFSTAVTTCPSTTPGSFSQETTKGSAFTTESETLPASNHSQRSMMTISTDIAVLRPTGSNPGILPSTSQLTTQKTTLTTSESLQKTTKSHQINSRQTILIIACCVGFVLMVLLFLAFLHHLFYWDVWFIYNVCLAKVKGYRSLSTSQTFYDAYISYDTKDASVTDWVINELRYHLEESRDKNVLLCLEERDWDPGLAIIDNLMQSINQSKKTVFVLTKKYAKSWNFKTAFYLALQRLMDENMDVIIFILLEPVLQHSQYLRLRQRICKSSILQWPDNPKAEGLFWQTLRNVVLTENDSRYNNMYVDSIKQYYFLGRLVPRGRGAAEAATRKQRITETESPYQELQGQRSDVYSDLNTQRPYYK
modifications: CER104 protein
B3: the “cytolytic activity (LDH cytotoxicity assay)” value in the data set on SCC152 cells [4] is recorded as “enhanced cytolytic activity”. In addition, in the data set on SCC152 cells [3] (8 hours co-culture with CD8/E7 TCR T cells and SCC152 cells), the “proportion of CER-transduced CD4+ T cells that have more than 10% engulfment” value is recorded as “about 20%”.

For the origin of these results see patent US11708423B2, “Chimeric engulfment receptor molecules and methods of use” (CERO THERAPEUTICS, INC., priority 2017, dated 2023).
